# Key:
# HLA-B*44:02 = experiment: IEDB peptide-MHC binding, purified MHC/competitive/radioactivity; filed as Kd, often an IC50 or EC50 that approximates it; ≥ and ≤ were set here for values at or beyond the usual limits of such assays
# HLA-A*29:02 = experiment: as above
# HLA-B*44:03 = experiment: as above
# HLA-A*01:01 = experiment: as above
# HLA-A*24:02 [1] = experiment: as above
# HLA-A*30:02 = experiment: as above
# HLA-A*23:01 = experiment: as above
# HLA-A*26:01 [2] = experiment: as above
# HLA-A*24:02 [3] = experiment: IEDB peptide-MHC binding, purified MHC/competitive/fluorescence; ≥ and ≤ were set here for values at or beyond the usual limits of such assays
# HLA-A*02:01 = experiment: as above
# HLA-A*26:01 [4] = experiment: IEDB peptide-MHC binding, purified MHC/direct/fluorescence; filed as Kd, often an IC50 or EC50 that approximates it; ≥ and ≤ were set here for values at or beyond the usual limits of such assays
# HLA-A*30:01 = experiment: IEDB peptide-MHC binding, purified MHC/competitive/radioactivity; filed as Kd, often an IC50 or EC50 that approximates it; ≥ and ≤ were set here for values at or beyond the usual limits of such assays
# HLA-A*32:01 = experiment: as above
# HLA-B*15:01 [5] = experiment: as above
# HLA-B*08:01 = experiment: as above; settings: source organism: Vaccinia virus WR
# HLA-B*15:01 [6] = experiment: IEDB peptide-MHC binding, purified MHC/competitive/fluorescence; filed as Kd, often an IC50 or EC50 that approximates it; ≥ and ≤ were set here for values at or beyond the usual limits of such assays; settings: source organism: Yersinia pestis Antiqua
# [7] = source organism: Dengue virus 3 Martinique/1243/1999
# [8] = source organism: Dengue virus 1 Brazil/97-11/1997
# [9] = source organism: Lymphocytic choriomeningitis virus (strain Armstrong)
# [10] = source organism: Mammarenavirus juninense
# [11] = source organism: Zaire ebolavirus
# [12] = source organism: Vaccinia virus
# [13] = source organism: Mammarenavirus guanaritoense
# [14] = source organism: SARS coronavirus Tor2
# [15] = source organism: Vaccinia virus WR
# [16] = source organism: Dengue virus 2 Peru/IQT2913/1996
# [17] = source organism: Mammarenavirus brazilense
# [18] = source organism: Vaccinia virus Copenhagen
sequence,measurement,setting,value
AELLNIPFLY,Kd,HLA-B*44:02; source organism: Homo sapiens,0.005 µM
same,Kd,HLA-A*29:02; source organism: Homo sapiens,0.108 µM
same,Kd,HLA-B*44:03; source organism: Homo sapiens,0.0027 µM
AEMEEALKG,Kd,HLA-B*44:02; [7],0.0297 µM
same,Kd,HLA-B*44:03; [7],0.00534 µM
AEPDDVDCW,Kd,HLA-B*44:02; [8],0.0374 µM
same,Kd,HLA-B*44:03; [8],0.236 µM
AFKVPGVKTV,Kd,HLA-A*29:02; [9],6.96 µM
same,Kd,HLA-A*01:01; [9],≥ 70.4 µM
same,Kd,HLA-A*24:02 [1]; [9],≥ 70.3 µM
same,Kd,HLA-A*30:02; [9],6.59 µM
same,Kd,HLA-A*23:01; [9],≥ 70 µM
same,Kd,HLA-A*26:01 [2]; [9],≥ 69.7 µM
AGSKYIHCF,Kd,HLA-A*29:02; [10],≥ 78.9 µM
same,Kd,HLA-A*01:01; [10],0.808 µM
same,Kd,HLA-A*24:02 [1]; [10],5.37 µM
same,Kd,HLA-A*30:02; [10],6.5 µM
same,Kd,HLA-A*23:01; [10],≥ 21.4 µM
same,Kd,HLA-A*26:01 [2]; [10],≥ 77.9 µM
AKNISGQSP,IC50,HLA-A*24:02 [3]; [11],≥ 552 µM
ATNLEYKTL,IC50,HLA-A*24:02 [3]; [12],43.6 µM
same,IC50,HLA-A*02:01; [12],≥ 85.8 µM
CVLEAMAFL,Kd,HLA-A*26:01 [4]; source organism: Influenza A virus (A/chicken/Hebei/nj/2002(H9N2)),≥ 20 µM
ECLPAAPDG,IC50,HLA-A*24:02 [3]; [11],≥ 394 µM
EFFDCFKYIL,Kd,HLA-A*29:02; [13],0.645 µM
same,Kd,HLA-A*24:02 [1]; [13],8.7 µM
same,Kd,HLA-A*23:01; [13],1.69 µM
EGIYIEGLM,IC50,HLA-A*24:02 [3]; [11],≥ 154 µM
EIDETCEHEY,Kd,HLA-A*29:02; [14],0.656 µM
same,Kd,HLA-A*01:01; [14],0.197 µM
same,Kd,HLA-A*24:02 [1]; [14],≥ 70.3 µM
same,Kd,HLA-A*30:02; [14],1.06 µM
same,Kd,HLA-A*23:01; [14],≥ 70 µM
same,Kd,HLA-A*26:01 [2]; [14],0.492 µM
ELGNILSVY,Kd,HLA-A*29:02; [10],11 µM
same,Kd,HLA-A*01:01; [10],16.5 µM
same,Kd,HLA-A*30:01; [10],11 µM
same,Kd,HLA-A*32:01; [10],≥ 77.8 µM
same,Kd,HLA-A*30:02; [10],0.00402 µM
same,Kd,HLA-A*26:01 [4]; [10],0.0165 µM
ESKMSFLPI,Kd,HLA-B*15:01 [5]; [15],0.358 µM
same,Kd,HLA-B*08:01,0.00106 µM
FFLPIFSEF,Kd,HLA-A*29:02; [13],0.000921 µM
same,Kd,HLA-A*24:02 [1]; [13],0.0324 µM
same,Kd,HLA-A*23:01; [13],0.000198 µM
FFQVIAKRY,Kd,HLA-B*15:01 [6],≥ 20 µM
FGAQHSTTL,IC50,HLA-A*24:02 [3]; source organism: Sudan ebolavirus,60.5 µM
FIFNIIMSF,Kd,HLA-B*15:01 [5]; [15],0.399 µM
FNATKFPSVY,Kd,HLA-A*29:02; [14],3.04 µM
same,Kd,HLA-A*01:01; [14],≥ 56.3 µM
same,Kd,HLA-A*24:02 [1]; [14],≥ 70.3 µM
same,Kd,HLA-A*30:02; [14],1.21 µM
same,Kd,HLA-A*23:01; [14],≥ 70 µM
same,Kd,HLA-A*26:01 [2]; [14],≥ 24.5 µM
FTMRHKKATY,Kd,HLA-A*01:01; [16],1.26 µM
same,Kd,HLA-A*30:02; [16],≥ 43.4 µM
same,Kd,HLA-B*15:01 [5]; [16],0.138 µM
FYGGWHNML,Kd,HLA-A*29:02; [14],15.5 µM
same,Kd,HLA-A*01:01; [14],≥ 78.1 µM
same,Kd,HLA-A*24:02 [1]; [14],≥ 27.9 µM
same,Kd,HLA-A*30:02; [14],≥ 100 µM
same,Kd,HLA-A*23:01; [14],5.18 µM
same,Kd,HLA-A*26:01 [2]; [14],≥ 77.9 µM
GSVGFNIDY,Kd,HLA-A*29:02; [14],0.177 µM
same,Kd,HLA-A*01:01; [14],5.64 µM
same,Kd,HLA-A*24:02 [1]; [14],≥ 77.6 µM
same,Kd,HLA-A*30:02; [14],1.66 µM
same,Kd,HLA-A*23:01; [14],≥ 77.8 µM
same,Kd,HLA-A*26:01 [2]; [14],10.2 µM
HVTRGAVLTY,Kd,HLA-B*15:01 [5]; [7],0.094 µM
same,Kd,HLA-A*26:01 [2]; [7],0.114 µM
IDFLLQRWG,IC50,HLA-A*24:02 [3]; [11],68.4 µM
same,IC50,HLA-A*02:01; [11],≥ 134 µM
IIIPFIAYF,Kd,HLA-B*15:01 [5]; [15],0.00159 µM
IMSKDKPTI,IC50,HLA-A*24:02 [3]; source organism: West Nile virus,1.98 µM
KFLTNKLLL,Kd,HLA-A*29:02; [14],≥ 24.2 µM
same,Kd,HLA-A*01:01; [14],≥ 78.1 µM
same,Kd,HLA-A*24:02 [1]; [14],1.09 µM
same,Kd,HLA-A*30:02; [14],≥ 27.3 µM
same,Kd,HLA-A*23:01; [14],0.379 µM
same,Kd,HLA-A*26:01 [2]; [14],≥ 61 µM
KVKSCLCSF,Kd,HLA-B*15:01 [5]; [15],0.0166 µM
KVNACHHNY,Kd,HLA-A*29:02; [17],0.115 µM
same,Kd,HLA-A*01:01; [17],3.84 µM
same,Kd,HLA-A*30:01; [17],0.501 µM
same,Kd,HLA-A*32:01; [17],0.445 µM
same,Kd,HLA-A*30:02; [17],0.0117 µM
same,Kd,HLA-A*26:01 [2]; [17],≥ 77.9 µM
KVSCSMLEF,Kd,HLA-B*15:01 [5]; [18],0.00084 µM
KVSIYKTHI,Kd,HLA-B*15:01 [5]; [15],1.46 µM
LANFLCLLM,Kd,HLA-B*15:01 [5]; [15],1.31 µM
LEENMDVEIW,Kd,HLA-B*44:02; [8],0.269 µM
same,Kd,HLA-B*44:03; [8],0.126 µM
LFVTIYSHL,Kd,HLA-A*29:02; [14],1.42 µM
same,Kd,HLA-A*01:01; [14],3.76 µM
same,Kd,HLA-A*24:02 [1]; [14],0.132 µM
same,Kd,HLA-A*30:02; [14],≥ 47.4 µM
same,Kd,HLA-A*23:01; [14],0.00922 µM
same,Kd,HLA-A*26:01 [2]; [14],1.1 µM
LILSCIFAF,Kd,HLA-A*32:01; [18],0.427 µM
same,Kd,HLA-B*15:01 [5]; [18],0.543 µM
LIVMDEAHF,Kd,HLA-B*15:01 [5]; source organism: Dengue virus 4 Philippines/H241/1956,0.0309 µM
LIWKVNPEI,IC50,HLA-A*24:02 [3]; [11],1.31 µM
same,IC50,HLA-A*02:01; [11],0.426 µM
LLHRCIYHY,Kd,HLA-B*15:01 [5]; [15],0.0429 µM
LNYVIHKLF,Kd,HLA-A*29:02; [17],12.8 µM
same,Kd,HLA-A*24:02 [1]; [17],10.5 µM
same,Kd,HLA-A*23:01; [17],0.973 µM

# Source: the Immune Epitope Database (IEDB)
